Experimental data reported in patent US6699677B1, “Tethered ligands and methods of use” (ChemoCentryx, Inc., priority 1999, dated 2004).

Tests used:
CCR10 [1] = biological target: T1, CCR10 (Homo sapiens, UniProt Q9NPB9); assay: Spectrum of ligands that bind to CCR10; format: binding; set-up: Full length CCR10 expression constructs were made in pIRESpuro expression vector; expressed in transfected cells; HEK293-CCR10)
T1 sequence (Q9NPB9 1-350): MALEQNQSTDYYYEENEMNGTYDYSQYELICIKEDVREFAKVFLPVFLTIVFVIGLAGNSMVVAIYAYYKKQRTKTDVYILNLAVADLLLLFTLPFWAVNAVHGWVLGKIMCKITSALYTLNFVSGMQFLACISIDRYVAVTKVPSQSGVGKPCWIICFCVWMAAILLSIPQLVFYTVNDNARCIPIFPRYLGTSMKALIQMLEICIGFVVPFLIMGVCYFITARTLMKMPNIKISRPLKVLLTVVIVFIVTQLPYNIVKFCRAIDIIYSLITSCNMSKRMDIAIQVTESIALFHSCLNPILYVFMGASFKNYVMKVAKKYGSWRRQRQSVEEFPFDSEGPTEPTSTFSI
Text: (§1) Furthermore ELC-SK mediated adhesion was abolished in the presence of soluble native ELC as a competitor (FIG. 3A, top row). […] Moreover, radiolabeled ELC was used in a traditional homologous competition assay in the presence of increasing concentrations of unlabeled ELC. […] Taken together, the stalkokine-based adhesion and radiolabeled ligand binding/homologous competition assays indicate that CCR10 is a new chemokine receptor that bound a novel compliment of chemokines.

CCR10 [2] = biological target: T1, CCR10; assay: Homologous competition binding of radiolabeled chemokine on HEK293-CCR10 cells; set-up: Full length CCR10 expression constructs were made in pIRESpuro expression vector; expressed in transfected cells; HEK293-CCR10)
Text: Human, viral and murine recombinant chemokines were obtained from R&D Systems (Minneapolis, Minn.; http://cytokine.rndsystems.com/cyt_cat/cyt_cat.html). ^125I-labeled ELC and TECK were obtained from Amersham. Full length CCR10 expression constructs were made in pIRESpuro expression vector (Clontech, Palo Alto, Calif.) with a FLAG epitope tag and prolactin signal sequence, and used to generated stable transfectants in HEK293 cells. Transient and stable transfections for CCR10 and stalkokines were done using Superfect reagent (Qiagen, Valencia, Calif.) following manufacturer's protocol. Stably-transfected cells were generated by selection in 2 ug/mL puromycin for 7 days, and expression was confirmed by FACS analysis of the FLAG epitope using anti-FLAG M1 (Sigma, St. Louis, Mo.) and 2′ anti-mouse PE conjugate (Coulter Immunotech, Miami, Fla.).
as §1

CCR7 = biological target: T2, CCR7 (Homo sapiens, UniProt P32248); assay: Binding of CCR7-NSO cells to immobilized stalkokines
T2 construct: host or cells: mouse myeloma NSO
T2 sequence (P32248 25-378): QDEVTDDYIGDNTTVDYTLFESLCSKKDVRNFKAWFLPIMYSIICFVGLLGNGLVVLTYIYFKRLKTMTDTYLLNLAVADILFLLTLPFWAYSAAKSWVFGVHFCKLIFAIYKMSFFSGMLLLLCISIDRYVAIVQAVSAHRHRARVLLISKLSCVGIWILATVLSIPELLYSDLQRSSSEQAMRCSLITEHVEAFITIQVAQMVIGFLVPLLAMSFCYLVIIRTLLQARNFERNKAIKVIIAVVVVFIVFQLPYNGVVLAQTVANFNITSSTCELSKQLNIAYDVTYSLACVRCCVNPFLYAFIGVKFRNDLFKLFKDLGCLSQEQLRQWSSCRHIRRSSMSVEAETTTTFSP
Experimental: (§2) In one set of experiments, five 8 well chamber slides (Lab-Tek II, Nalge Nunc International, Rochester, N.Y.), 250 ul of 10 ug/ml anti-his antibody (R&D Systems, Minneapolis, Minn.) in PBS was added to each well and incubated at room temperature overnight (typically 16 hours). Following, the liquid in each well was aspirated and washed once for approximately 5 minutes with 500 ul of PBS. The wells were then “blocked” (blocked for any additional protein binding sites) with the addition of 250 ul of blocking solution (2% fetal bovine serum, 0.5% BSA in PBS) and incubation for 1 hour at room temp (e.g., 20° C.). The liquid in each well was aspirated and 250 ul of supernatant containing the chemokine-stalk-immobilization domain fusion proteins (SDF1a-FRAC, finetaxin-FRAC, CCL27-FRAC, 1309-FRAC, MIP3a-FRAC, ELC-FRAC, SLC-FRAC, MDC-FRAC, TARC-FRAC, or BRAK-FRAC) or the control supernatant was added to two wells. Each slide contained two wells with control supernatant (from mock-transfected cells) and two wells with the positive control SDF1a (which binds the ubiquitous chemokine receptor CXCR4). The four other wells were for experimental samples. The supernatants were incubated for one hour at room temperature (typically 20° C.), then incubated for an additional hour at 37° C. […] The slide was then ready for addition of cells for assay. […]

CCR10 [3] = biological target: T1, CCR10; assay: Binding of CCR10-NSO cells to immobilized stalkokines; set-up: expressed in transfected cells; host or cells: not clear (NSO per the earlier reading)
Experimental: as §2

wild type HEK293 cells = assay: Homologous competition binding of radiolabeled ELC on wild type HEK293 cells; set-up: species or system human; details: wildtype (wt) HEK293 cells
Text: as §1

Substance | Affinity of binding to CCR10 (CCR10 [1]) | Binding of radiolabeled chemokine in homologous competition with cold chemokine (CCR10 [2]) | Binding to Stalkokine form (CCR7) | Binding to Stalkokine form (CCR10 [3]) | Binding of radiolabeled ELC in homologous competition with unlabeled ELC (wild type HEK293 cells)
BLC: chemokine | lower affinity | – | – | – | –
ELC: EBl1 ligand chemokine, soluble recombinant native form | high affinity | significant binding | yes | yes | not
